Reference: article PMC314469, “Protein Interaction Networks by Proteome Peptide Scanning” (PLoS Biology, 2004)

Experiments:
Assay in all cases: SPOT array
[1] = target: Sho1 SH3 (SHO1_YEAST), P40073
[2] = target: T1, Boi1 SH3 (BOI1_YEAST), P38041
T1 chain: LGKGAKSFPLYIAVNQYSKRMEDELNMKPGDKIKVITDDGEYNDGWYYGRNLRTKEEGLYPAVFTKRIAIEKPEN

[3] = target: T2, Boi2 SH3 (BOI2_YEAST), P39969
T2 chain: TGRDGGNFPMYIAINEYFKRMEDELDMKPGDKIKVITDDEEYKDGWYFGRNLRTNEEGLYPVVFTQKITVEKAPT

[4] = target: T3, Myo5 SH3 (MYO5_YEAST), Q04439
T3 chain: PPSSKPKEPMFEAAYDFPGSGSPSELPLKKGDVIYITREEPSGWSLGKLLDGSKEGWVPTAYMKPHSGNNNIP

[5] = target: T4, Rvs167 SH3 (RV167_YEAST), P39743
T4 chain: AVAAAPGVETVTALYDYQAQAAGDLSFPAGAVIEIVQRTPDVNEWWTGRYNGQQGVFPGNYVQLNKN

[6] = target: T5, Yfr024 SH3 (LSB3_YEAST), P43603
T5 chain: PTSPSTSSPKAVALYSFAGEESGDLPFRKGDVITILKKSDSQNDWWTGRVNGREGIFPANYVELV

[7] = target: T6, Yhr016c SH3 (YSC84_YEAST), P32793
T6 chain: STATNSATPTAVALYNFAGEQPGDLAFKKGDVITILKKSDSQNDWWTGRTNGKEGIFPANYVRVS

[8] = target: T7, Abp1 SH3 (ABP1_YEAST), P15891
T7 chain: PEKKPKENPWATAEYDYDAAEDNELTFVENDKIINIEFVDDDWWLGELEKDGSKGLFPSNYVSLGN

Chain of Sho1 SH3 (SHO1_YEAST), P40073 (P40073 295-366): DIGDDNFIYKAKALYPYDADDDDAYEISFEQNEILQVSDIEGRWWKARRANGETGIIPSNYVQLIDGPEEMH

## NIQPDLPPRKIMIP [90-103 Hypothetical ORF]
[1]
  normalised SPOT signal, Boehringer light units (BLU); mean over the file's lines of this peptide: 197

## NIQPNIPLRSYRYL [782-795 Hypothetical ORF]
[1]
  normalised SPOT signal, Boehringer light units (BLU); mean over the file's lines of this peptide: 117

## NKIPPKPRKVLQLL [93-106 Ribosomal protein L7A (L6A) (rp11) (YL8)]
[1]
  normalised SPOT signal, Boehringer light units (BLU); mean over the file's lines of this peptide: 152

## RERPLEPPRKPMAS [YDR448W 142-155]
[2]
  normalised SPOT signal, Boehringer light units (BLU); mean over the file's lines of this peptide: 256
[3]
  normalised SPOT signal, Boehringer light units (BLU); mean over the file's lines of this peptide: 41.1
[4]
  normalised SPOT signal, Boehringer light units (BLU); mean over the file's lines of this peptide: 967
[5]
  normalised SPOT signal, Boehringer light units (BLU); mean over the file's lines of this peptide: 599
[6]
  normalised SPOT signal, Boehringer light units (BLU); mean over the file's lines of this peptide: 13500
[7]
  normalised SPOT signal, Boehringer light units (BLU); mean over the file's lines of this peptide: 1830

## TELNLSSPNVPGKP [YKL216W 127-140]
[8]
  normalised SPOT signal, Boehringer light units (BLU); mean over the file's lines of this peptide: 166
[4]
  normalised SPOT signal, Boehringer light units (BLU); mean over the file's lines of this peptide: 228

## WETWLYKPGMPPRP [YNL045W 490-503]
[8]
  normalised SPOT signal, Boehringer light units (BLU); mean over the file's lines of this peptide: 310
[4]
  normalised SPOT signal, Boehringer light units (BLU); mean over the file's lines of this peptide: 255

## ILTSLPVPPPPVRP [YDL140C 235-248]
[8]
  normalised SPOT signal, Boehringer light units (BLU); mean over the file's lines of this peptide: 208
[4]
  normalised SPOT signal, Boehringer light units (BLU); mean over the file's lines of this peptide: 617

## KLAILTSPFEPPKP [YJR064W 268-281]
[8]
  normalised SPOT signal, Boehringer light units (BLU); mean over the file's lines of this peptide: 40.4
[4]
  normalised SPOT signal, Boehringer light units (BLU); mean over the file's lines of this peptide: 173

## LVGMRSFPLYPSGL [YDL068W 45-58]
[2]
  normalised SPOT signal, Boehringer light units (BLU); mean over the file's lines of this peptide: 512
[3]
  normalised SPOT signal, Boehringer light units (BLU); mean over the file's lines of this peptide: 325
[4]
  normalised SPOT signal, Boehringer light units (BLU); mean over the file's lines of this peptide: 386
[5]
  normalised SPOT signal, Boehringer light units (BLU); mean over the file's lines of this peptide: 387
[6]
  normalised SPOT signal, Boehringer light units (BLU); mean over the file's lines of this peptide: 1940
[7]
  normalised SPOT signal, Boehringer light units (BLU); mean over the file's lines of this peptide: 330

## NEDTFLPPPPPPPS [YHR165C 44-57]
[4]
  normalised SPOT signal, Boehringer light units (BLU); mean over the file's lines of this peptide: 20400

## NEFLHFDPHIPQPA [YNL223W 328-341]
[4]
  normalised SPOT signal, Boehringer light units (BLU); mean over the file's lines of this peptide: 156

## NEGDLYPPEQPGVD [YJL115W 157-170]
[4]
  normalised SPOT signal, Boehringer light units (BLU); mean over the file's lines of this peptide: 80.1

## NEHGMNAPSVPEFI [YOR290C 25-38]
[4]
  normalised SPOT signal, Boehringer light units (BLU); mean over the file's lines of this peptide: 344

## NEIELLRPRSPVQK [YCL055W 320-333]
[4]
  normalised SPOT signal, Boehringer light units (BLU); mean over the file's lines of this peptide: 126

## NEKLHETPHLPSPV [YNL204C 272-285]
[4]
  normalised SPOT signal, Boehringer light units (BLU); mean over the file's lines of this peptide: 109

## NETKLKFPTLPEVP [YHR117W 470-483]
[4]
  normalised SPOT signal, Boehringer light units (BLU); mean over the file's lines of this peptide: 255

## NFLKHYLPSSPGDI [YDL033C 241-254]
[4]
  normalised SPOT signal, Boehringer light units (BLU); mean over the file's lines of this peptide: 172

## NFPSLIDPHVPTYG [YDL223C 906-919]
[4]
  normalised SPOT signal, Boehringer light units (BLU); mean over the file's lines of this peptide: 97.4
